For three sequences, Kd and Ka results are on record in US20040191815.

The target of series [1] is MafG homodimer (UniProt O15525). Briefly: SPR. The conditions noted are these: pH 7.9; for Kd: 20 mM Hepes, 200 mM NaCl, 4 mM MgCl2, 1 mM EDTA, BSA.
Series [2] shares this target. Briefly: EMSA. The conditions noted are these: gel mobility shift assay comparison, probe details not given. For orientation: In EMSA bound probe runs differently from free probe, usually more slowly.
Where [3] appears, read: 5' thiol on anchor strand (immobilized).

Sequence of MafG homodimer (O15525 whole entry): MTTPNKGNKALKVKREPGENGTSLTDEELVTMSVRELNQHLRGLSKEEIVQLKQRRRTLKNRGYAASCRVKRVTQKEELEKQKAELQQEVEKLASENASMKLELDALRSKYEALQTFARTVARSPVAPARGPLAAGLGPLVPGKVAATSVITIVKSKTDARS

“TTTTTTTTTTTTTTTCGGAATAGTTGACTCAGCATTACTC (double strand) [hNQO1m]”: the Kd (in general, the constant that tells how readily two partners part at equilibrium) is 8.58 nM with MafG homodimer [1] (setting [3]) and 273 nM in the series with MafG homodimer [2] (setting [3]).

For “TTTTTTTTTTTTTTTCGGAATTGCTGACTCAGCATTACTC (double strand) [MARE 25]”, the Ka with MafG homodimer [1] (5' thiol on anchor strand (immobilized), 10 mM Hepes, 300 mM NaCl, 4 mM Mg, 1 mM EDTA, ka 2.22e5 M-1s-1, kd 8.80e-4 s-1, Example 1 sequence printed only in figure) came to 2.52e+08 M⁻¹. In addition, the Kd with MafG homodimer [1] (5' thiol on anchor strand (immobilized), SPR imaging) is 2.5 nM; with MafG homodimer [2] (setting [3]), 249 nM.

On to “TTTTTTTTTTTTTTTCGGAATTGCTGATTCAGCCTTACTC (double strand) [hOPSIN]”, for which the Kd with MafG homodimer [1] (5' thiol on anchor strand (immobilized) [variable site 22-34 (TGCTGATTCAGCC), 5' thiol linker at 1 left out], listing SEQ 7 has 14 nt, Table 2 prints 13 nt) was 7.67 nM; in the series with MafG homodimer [2] (5' thiol on anchor strand (immobilized) [variable site 22-34 (TGCTGATTCAGCC), 5' thiol linker at 1 left out]), 252 nM.
